# According to article PMC10786891, “Massively parallel profiling of RNA-targeting CRISPR-Cas13d”:
# Residue numbers refer to the chain shown, from its start. In names and notes the source's numbering stands.
# T1: EsCas13d, nuclease-dead (Eubacterium siraeum, UniProt B0MS50, R295A;H300A;R849A;H854A)
# T1 sequence: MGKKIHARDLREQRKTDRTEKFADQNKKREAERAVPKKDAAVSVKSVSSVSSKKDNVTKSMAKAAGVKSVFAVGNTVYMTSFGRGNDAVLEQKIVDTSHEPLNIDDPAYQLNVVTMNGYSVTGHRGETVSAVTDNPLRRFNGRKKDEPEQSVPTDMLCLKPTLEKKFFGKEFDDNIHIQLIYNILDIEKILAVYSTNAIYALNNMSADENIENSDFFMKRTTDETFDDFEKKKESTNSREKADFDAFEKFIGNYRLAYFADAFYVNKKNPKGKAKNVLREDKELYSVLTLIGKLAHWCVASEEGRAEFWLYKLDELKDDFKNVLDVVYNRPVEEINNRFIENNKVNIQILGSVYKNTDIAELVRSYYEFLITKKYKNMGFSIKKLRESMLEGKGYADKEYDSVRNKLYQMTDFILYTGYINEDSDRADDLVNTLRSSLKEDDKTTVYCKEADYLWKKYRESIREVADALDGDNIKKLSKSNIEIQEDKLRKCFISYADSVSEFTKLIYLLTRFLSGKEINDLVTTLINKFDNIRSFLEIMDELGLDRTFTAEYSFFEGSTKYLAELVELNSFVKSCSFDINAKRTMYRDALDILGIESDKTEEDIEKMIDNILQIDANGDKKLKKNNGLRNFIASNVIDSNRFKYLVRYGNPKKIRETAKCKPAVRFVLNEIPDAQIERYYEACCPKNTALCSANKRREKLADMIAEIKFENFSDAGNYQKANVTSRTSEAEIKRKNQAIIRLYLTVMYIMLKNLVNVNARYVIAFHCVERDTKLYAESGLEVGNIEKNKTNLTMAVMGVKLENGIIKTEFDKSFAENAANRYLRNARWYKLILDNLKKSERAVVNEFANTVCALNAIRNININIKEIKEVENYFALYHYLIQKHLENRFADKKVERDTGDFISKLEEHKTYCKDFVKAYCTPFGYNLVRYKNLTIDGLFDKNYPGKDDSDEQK
# B1: target 1 insG 3' of 22,insC 3' of 3 (mixed)
# RNA 1: CACCCGUGCAAAAAUGCAGGGGUCUAAAACUGAGCGGAUAACCUCUCUAUGG
# RNA 2: GGGAAUGGAUCCACAUCUACGAAUUCGUACGCAUAGAGAGGUUAUCCGCUCCACCGAGAUCGGAAGAGCACACGU
# B2: target 1 insA 3' of 22 (mixed)
# RNA 1: B1 RNA 1
# RNA 2: GGGAAUGGAUCCACAUCUACGAAUUCGUACACAUAGAGAGGUUAUCCGCUCACCGAGAUCGGAAGAGCACACGU
# B3: target 1 C4A,G5U (mixed)
# RNA 1: B1 RNA 1
# RNA 2: GGGAAUGGAUCCACAUCUACGAAUUCGUACCAUAGAGAGGUUAUCCUAUCACCGAGAUCGGAAGAGCACACGU
# B4: target 1 insU 3' of 21,insA 3' of 10 (mixed)
# RNA 1: B1 RNA 1
# RNA 2: B1 RNA 2 with G31C, C32U, U45A, C46U, G48C, C49G, U50C, C51U
# B5: target 1 insC 3' of 12,insA 3' of 2 (mixed)
# RNA 1: B1 RNA 1
# RNA 2: GGGAAUGGAUCCACAUCUACGAAUUCGUACCAUAGAGAGGCUUAUCCGCUCAACCGAGAUCGGAAGAGCACACGU
# B6: target 1 insG 3' of 16,insA 3' of 13 (mixed)
# RNA 1: B1 RNA 1
# RNA 2: GGGAAUGGAUCCACAUCUACGAAUUCGUACCAUAGAGGAGAGUUAUCCGCUCACCGAGAUCGGAAGAGCACACGU
# B7: target 1 insU 3' of 15,insC 3' of 9 (mixed)
# RNA 1: B1 RNA 1
# RNA 2: B6 RNA 2 with G38U, A41G, G42U, U44A, A45C
# B8: target 1 insC 3' of 12,insG 3' of 1 (mixed)
# RNA 1: B1 RNA 1
# RNA 2: B5 RNA 2 with A53G
# B9: target 1 insA 3' of 13,insU 3' of 9 (mixed)
# RNA 1: B1 RNA 1
# RNA 2: B6 RNA 2 with G38A, A39G, G40A, A41G, G42U, U44A, A45U
# B10: target 1 insC 3' of 9,insG 3' of 8 (mixed)
# RNA 1: B1 RNA 1
# RNA 2: B6 RNA 2 with G38A, A39G, A41U, G42U, U43A, U44C, A45U, U46G
# B11: target 1 insU 3' of 18,insA 3' of 7 (mixed)
# RNA 1: B1 RNA 1
# RNA 2: B6 RNA 2 with G35U, A36G, G37A, A41G, G42U, U44A, A45U, U46C, C47A
# B12: target 1 insC 3' of 12,insC 3' of 1 (mixed)
# RNA 1: B1 RNA 1
# RNA 2: B5 RNA 2 with A53C
# B13: target 1 U8C,G17U (mixed)
# RNA 1: B1 RNA 1
# RNA 2: B3 RNA 2 with G35U, U44C, U47G, A48C
# B14: target 1 insU 3' of 15,insU 3' of 7 (mixed)
# RNA 1: B1 RNA 1
# RNA 2: B6 RNA 2 with G38U, A41G, G42U, U44A, A45U, U46C, C47U
# B15: target 1 insG 3' of 8,insG 3' of 7 (mixed)
# RNA 1: B1 RNA 1
# RNA 2: B6 RNA 2 with G38A, A39G, A41U, G42U, U43A, A45G, U46C, C47G
# B16: target 1 C6U,C7A (mixed)
# RNA 1: B1 RNA 1
# RNA 2: B3 RNA 2 with C45A, C46U, U47G, A48C
# Molecular target: T1, EsCas13d, nuclease-dead
# Experiment: crRNA (strand 1, pre-loaded); Mg2+; 40 mM Tris-HCl pH 7.5, 150 mM NaCl, 6 mM MgCl2, 1 mM DTT, 0.1% Tween-20, 0.2 mg/ml BSA; 25 C; 10 min per concentration, then washed
# Settings: tags: His6-TwinStrep-SUMO cleaved; N-terminal SNAP kept (SNAP-Surface 488); label: 3' end held by stalled T7 RNA polymerase
row,Binder,Kd
1,B1,31.2 ± 3.4 nM
2,B2,14.8 ± 1.1 nM
3,B3,30.6 ± 2.4 nM
4,B4,39.2 ± 2.4 nM
5,B5,9.9 ± 1.1 nM
6,B6,16.1 ± 1.5 nM
7,B7,67 ± 7 nM
8,B8,8.5 ± 1.2 nM
9,B9,4.6 ± 0.5 nM
10,B10,11.1 ± 0.4 nM
11,B11,23.6 ± 2.6 nM
12,B12,7.7 ± 0.5 nM
13,B13,41 ± 4 nM
14,B14,8.47 ± 0.27 nM
15,B15,8.24 ± 0.23 nM
16,B16,8.6 ± 0.6 nM
